# Results from publication PMC11905679.
# Columns and labels:
# α-chymotrypsin (bovine) [1] = target: α-chymotrypsin (bovine)
# α-chymotrypsin (bovine) [2] = target: α-chymotrypsin (bovine); remark: listed apart in the source
# α-chymotrypsin (bovine) [3] = target: α-chymotrypsin (bovine); remark: listed apart in the source
# α-chymotrypsin (bovine) [4] = test: enzyme inhibition kinetics
substance,measurement,setting,value
Trichinella pseudospiralis serine protease inhibitor (Tp-serpin) (natural protein),"k3, rate constant of the irreversible inhibition of α-chymotrypsin (BTEE hydrolysis, 256 nm)",α-chymotrypsin (bovine) [1],0.00235 s⁻¹
same,inhibition rate of α-chymotrypsin enzyme activity at 200 nM serpin,α-chymotrypsin (bovine) [2],> 80%
same,"stoichiometry of inhibition (SI), residual chymotrypsin activity against the molar ratio [I]/[E]",α-chymotrypsin (bovine) [3],1.19
same,Ki,α-chymotrypsin (bovine) [4],0.0479 µM
Trichinella spiralis serine protease inhibitor (Ts-serpin) (natural protein),"k3, rate constant of the irreversible inhibition of α-chymotrypsin (BTEE hydrolysis, 256 nm)",α-chymotrypsin (bovine) [1],0.00247 s⁻¹
same,inhibition rate of α-chymotrypsin enzyme activity at 200 nM serpin,α-chymotrypsin (bovine) [2],> 80%
same,"stoichiometry of inhibition (SI), residual chymotrypsin activity against the molar ratio [I]/[E]",α-chymotrypsin (bovine) [3],1.21
same,Ki,α-chymotrypsin (bovine) [4],0.0492 µM
